We go through seven substances from patent US20130117870.

Common to all, as to experiment: cell_activity
In series [1] the test system is LDLRE2.1 (LDLR2.1) TALEN pair (synthetic construct). The following applies: mRNA, pig fibroblasts, 30 C; plasmid 14.4-21.5.
Series [2] has as its system ACAN12 TALEN pair (+231) (synthetic construct). Conditions: +231 scaffold in fibroblasts; indels confirmed in bovine embryos (Table 2).
Series [3] has as its system ACAN12 TALEN pair (+63) (synthetic construct). The following applies: SURVEYOR, bovine fibroblasts; 29 in Table 1.
In series [4] the test system is DMDE6 TALEN pair (synthetic construct). The following applies: pig fibroblasts.
The subject of series [5] is DMDE7.1 TALEN pair (synthetic construct). The following applies: SURVEYOR, pig fibroblasts; 27 in Table 1.
The test system of series [6] is GHRHR2.3 TALEN pair (synthetic construct). The following applies: mRNA, female pig fibroblasts; male 32.5; puro-free plasmid G-418 29.
Series [7] has as its system LDLRE4.2 TALEN pair (synthetic construct). The following applies: male pig fibroblasts; female 19.
In series [8] the test system is p65 (p6511.1) TALEN pair (synthetic construct). Conditions: 10 ng/ul mRNA each, porcine zygotes.

Where only a bound is given, the exact number is not on record here.

The substance “CTCCTACAAGTGGATTGTGATGGGAACACCGAGTGCAAGGACGGGTCCG (double strand) [porcine LDLR exon 2 target]” came in with an activity (% modified (day 3)) in series [1] of 34.

Turning to bovine ACAN12 target, the activity (% chromosomes cleaved) in series [2] is less than 1; in series [3] it was 25.

Consider porcine DMD exon 6 target, for which the activity (% modified (day 3)) in series [4] amounted to 25.

Substance porcine DMD exon 7 target displayed an activity (% chromosomes cleaved) in series [5] of 38.

The substance porcine GHRHR target had an activity (% modified (day 3)) in series [6] of 35.

Substance porcine LDLR exon 4 target yielded an activity (% modified (day 3)) in series [7] of 20.

As to porcine RELA (p65) target, the activity (% embryos with indels (16/56)) in series [8] was determined as 29.
